Non-standard residues stand in square brackets, D forms with d. No end group written: not given here. *: point of attachment. Biotin = O=C1N[C@H]2[C@H](CS[C@H]2CCCCC(=O)*)N1; pY = N[C@@H](Cc1ccc(OP(=O)(O)O)cc1)C(=O)O
T1: PLCγ2 SH2-SH2-SH3 (tandem SH2 domains plus the SH3 domain of PLCγ2) (human, UniProt P16885 519-838)
T1 construct: PLCγ2, human, tandem SH2 domains plus SH3 domain, aa 519–838; Printed MW = 42415 of the recombinant protein; also called recombinant PLCγ2 SH2 domains; source: E. coli BL21(DE3)pLysS, purified (Co2+ or Ni2+ column, size exclusion chromatography, same day as SPR)
T1 sequence: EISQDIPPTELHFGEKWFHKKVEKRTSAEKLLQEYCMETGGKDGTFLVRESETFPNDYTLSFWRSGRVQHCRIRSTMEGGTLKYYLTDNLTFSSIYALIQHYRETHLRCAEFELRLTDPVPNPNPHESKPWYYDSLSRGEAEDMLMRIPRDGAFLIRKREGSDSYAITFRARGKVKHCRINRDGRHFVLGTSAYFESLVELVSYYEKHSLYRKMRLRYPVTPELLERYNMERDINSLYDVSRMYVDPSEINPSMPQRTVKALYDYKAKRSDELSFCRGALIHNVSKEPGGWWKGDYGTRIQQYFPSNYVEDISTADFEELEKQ

T2: PLCγ1 SH2-SH2-SH3 (tandem SH2 domains plus the SH3 domain of PLCγ1) (human, UniProt P19174 536-863)
T2 construct: PLCγ1, human, tandem SH2 domains plus SH3 domain, aa 536–863; Printed MW = 42531 of the recombinant protein; also called recombinant PLCγ1; source: E. coli BL21(DE3)pLysS, purified (Co2+ or Ni2+ column, size exclusion chromatography, same day as SPR)
T2 sequence: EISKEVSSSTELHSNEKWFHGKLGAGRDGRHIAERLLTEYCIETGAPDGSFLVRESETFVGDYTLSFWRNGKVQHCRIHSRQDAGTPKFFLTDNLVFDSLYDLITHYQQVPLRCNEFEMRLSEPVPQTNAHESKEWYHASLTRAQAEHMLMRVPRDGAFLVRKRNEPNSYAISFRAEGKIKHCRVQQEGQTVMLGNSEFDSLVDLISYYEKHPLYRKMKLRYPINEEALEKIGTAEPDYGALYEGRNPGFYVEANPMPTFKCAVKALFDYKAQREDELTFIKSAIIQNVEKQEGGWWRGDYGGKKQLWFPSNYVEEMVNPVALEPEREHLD

T3: EAT-2 (recombinant full-length human EAT-2) (human, UniProt O14796 1-132)
T3 construct: EAT-2, human, full length; source: E. coli BL21(DE3)pLysS, purified (Co2+ or Ni2+ column, size exclusion chromatography)
T3 sequence (looked up): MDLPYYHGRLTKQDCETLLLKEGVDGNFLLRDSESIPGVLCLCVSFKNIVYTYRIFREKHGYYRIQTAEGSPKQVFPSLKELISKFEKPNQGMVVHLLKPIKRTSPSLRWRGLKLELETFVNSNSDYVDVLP

T4: SHIP SH2 (SH2 domain from human SHIP-1) (human, UniProt Q92835 5-101)
T4 construct: SHIP-1, human, single SH2 domain; also called hSHIP SH2; SHIP-1 SH2 domain; source: E. coli BL21(DE3)pLysS, purified (Co2+ or Ni2+ column, size exclusion chromatography)
T4 sequence (looked up): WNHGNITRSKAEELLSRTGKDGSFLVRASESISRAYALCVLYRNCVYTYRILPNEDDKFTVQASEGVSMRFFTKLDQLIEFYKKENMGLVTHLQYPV

T5: SHP-2 N-terminal + C-terminal (N+C) SH2 domains (human, UniProt Q06124 2-219)
T5 construct: SHP-2, human, N-terminal + C-terminal SH2 domains, aa 2–219; also called SHP-2 (SH2-SH2); SHP2 N+C SH2; source: E. coli BL21(DE3)pLysS, purified (Oxford Protein Production Facility / in house; size exclusion chromatography)
T5 sequence (looked up): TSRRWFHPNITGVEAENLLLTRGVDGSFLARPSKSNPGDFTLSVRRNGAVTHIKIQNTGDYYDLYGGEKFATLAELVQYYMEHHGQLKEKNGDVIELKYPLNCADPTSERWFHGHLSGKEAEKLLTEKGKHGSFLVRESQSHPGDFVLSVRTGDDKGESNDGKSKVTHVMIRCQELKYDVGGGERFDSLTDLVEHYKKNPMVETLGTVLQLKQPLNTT

T6: SAP (recombinant full-length human SAP) (human, UniProt O60880 1-128)
T6 construct: SAP, human, full length; also called SH2D1A; source: E. coli BL21(DE3)pLysS, purified (Co2+ or Ni2+ column, size exclusion chromatography)
T6 sequence (looked up): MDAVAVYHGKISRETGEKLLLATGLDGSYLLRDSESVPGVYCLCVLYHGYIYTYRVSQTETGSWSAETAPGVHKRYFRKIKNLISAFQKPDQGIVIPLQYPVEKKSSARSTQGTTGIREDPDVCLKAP

B1: CD244 ITSM1 phosphopeptide (Biotin-EFLTIpYEDVKD) (peptide)
peptide: Biotin-EFLTI[pY]EDVKD
notes: CD244 (SLAMF4), human, cytoplasmic ITSM1; also called SLAMF4 ITSM1; source: synthetic peptide (Peptide Protein Research Ltd)
B2: CD244 ITSM1,ITSM2 (equimolar mixture of single ITSM on chip) (other)
chain 1: Biotin-EFLTI[pY]EDVKD
chain 2: Biotin-GGSTI[pY]SMIQS
modifications: also: equimolar mixture of two separate peptides
B3: FCRγIIb (CD32) phosphopeptide (peptide)
chain: ENTITYSLLMH
modifications: also: phosphorylated, site not given here, biotinylated, site not given here
B4: LAT Y132 phosphopeptide (Biotin-HNPGpYLVVLPD) (peptide)
peptide: Biotin-HNPG[pY]LVVLPD
notes: LAT, human, stretch around Y132; also called LAT pY132; source: synthetic peptide (Peptide Protein Research Ltd)
B5: EAT-2 Y127 phosphopeptide (Biotin-NSNSDpYVDVLP) (peptide)
peptide: Biotin-NSNSD[pY]VDVLP
notes: EAT-2, human, tail with the conserved tyrosine motif Y127; also called EAT-2 pY127; EAT-2 tail phosphopeptide; source: synthetic peptide (Peptide Protein Research Ltd)
B6: CRACC ITSM2 phosphopeptide (Biotin-PANTVpYSTVEI) (peptide)
peptide: Biotin-PANTV[pY]STVEI
notes: CRACC (SLAMF7), human, cytoplasmic ITSM2; also called SLAMF7 ITSM2; source: synthetic peptide (Peptide Protein Research Ltd)
B7: CD244 ITSM3+ITSM4 tandem phosphopeptide (peptide)
peptide: Biotin-PAYTL[pY]SLIQPSRKSGSRKRNHSPSFNSTI[pY]EVIGK
notes: CD244 (SLAMF4), human, cytoplasmic stretch with ITSM3 and ITSM4; source: synthetic peptide (Peptide Protein Research Ltd)
B8: CD244 ITSM1+ITSM2 tandem phosphopeptide (peptide)
peptide: Biotin-EFLTI[pY]EDVKDLKTRRNHEQEQTFPGGGSTI[pY]SMIQS
notes: CD244 (SLAMF4), human, cytoplasmic stretch with ITSM1 and ITSM2; also called tandem ITSM peptide; source: synthetic peptide (Peptide Protein Research Ltd)
B9: SIRPα ITIM1+ITIM2 tandem phosphopeptide (peptide)
peptide: Biotin-TNDIT[pY]ADLNLPKGKKPAPQAAEPNNHTE[pY]ASIQT
notes: SIRPα, human, cytoplasmic stretch with ITIM1 and ITIM2; source: synthetic peptide (Peptide Protein Research Ltd)
B10: SIRPα ITIM3+ITIM4 tandem phosphopeptide (peptide)
chain: EDTLTYADLDMVHLNRTPKQPAPKPEPSFSEYASVQV
modifications: also: phosphorylated, sites not given here, biotinylated, site not given here

Tests used:
Details in all cases: both partners purified
[1] = biological target: T1, PLCγ2 SH2-SH2-SH3 (tandem SH2 domains …); experiment: SPR; biotinylated phosphopeptides immobilised on streptavidin chip (about 25 RU single motifs); soluble recombinant protein injected in two-fold dilutions; 37°C; HBS-EP (10 mM HEPES pH 7.4, 150 mM NaCl, 3.4 mM EDTA, 0.005% P20); equilibrium binding, one-site model; proteins purified on the same day as SPR (Tables 1 and 6)
[2] = biological target: T2, PLCγ1 SH2-SH2-SH3 (tandem SH2 domains …); experiment: as above
[3] = biological target: T3, EAT-2 (recombinant full-length human …); experiment: as above
[4] = biological target: T4, SHIP SH2 (SH2 domain from human SHIP-1); experiment: SPR; biotinylated phosphopeptides immobilised on streptavidin chip (about 25 RU single, 50 RU tandem motifs); soluble recombinant protein injected; 37°C; HBS-EP; equilibrium binding (Table 4; same-day purification not given)
[5] = biological target: T5, SHP-2 N-terminal + C-terminal (N+C) SH2 …; experiment: as above
[6] = biological target: T3, EAT-2 (recombinant full-length human …); experiment: as above
[7] = biological target: T6, SAP (recombinant full-length human SAP); experiment: SPR; biotinylated phosphopeptides immobilised on streptavidin chip (about 25 RU single motifs); soluble recombinant protein injected in two-fold dilutions; 37°C; HBS-EP (10 mM HEPES pH 7.4, 150 mM NaCl, 3.4 mM EDTA, 0.005% P20); equilibrium binding, one-site model; proteins purified on the same day as SPR (Tables 1 and 6)
[8] = biological target: T5, SHP-2 N-terminal + C-terminal (N+C) SH2 …; experiment: SPR; biotinylated tandem phosphopeptides immobilised on streptavidin chip; SHP-2 N+C SH2 injected; 25°C; HBS-EP; equilibrium binding (Table 4)

Row | Binder | Kd [1] [nM] | Kd [2] [nM] | Kd [5] [nM] | Kd [8] [nM] | further results
1 | B1 | 210 | 800 | 29000 |  | Kd [3]: 20 nM; Kd [4]: 11000 nM; Kd [6]: 60 nM
2 | B2 |  |  | 22000 |  | 
3 | B3 |  |  |  |  | Kd [4]: 470 nM
4 | B4 | 20 | 20 |  |  | 
5 | B5 | 30 | 10 |  |  | 
6 | B6 |  |  |  |  | Kd [7]: 440 nM; Kd [3]: 3 nM
7 | B7 |  |  | 10000 | 7400 | 
8 | B8 |  |  | 2200 | 1400 | 
9 | B9 |  |  | 1000 | 500 | 
10 | B10 |  |  |  | 6400 | 
